# Target: 3xFlag20Q-htt (full-length humanized normal huntingtin, chimeric mouse/human exon 1 with a 20Q stretch and the human PRR, with a 3xFlag N-terminal epitope tag) (mouse | human)
# Test: co-IP; 500 ug whole brain cytoplasmic extract (mice 13, 16 or 27 months old) with 5-6 ug FLAG M2 or 1C2 antibody overnight at 4°C, captured on Protein G-agarose beads for 3 hr; same extraction buffer; eluted by boiling in SDS sample buffer; bound and non-bound fractions blotted with 1C2 and MAB2166; control without antibody
substance,measurement,value
"140Q-htt (soluble full-length mutant huntingtin of the CAG140 knock-in allele, chimeric mouse/human exon 1 with a 140Q stretch and the human PRR) (natural protein)",percent of soluble full-length mutant htt associated with 3xFlag20Q-htt,< 2.5%
